Consider one protein from PMC4081106 (Nucleic Acids Research, 2014).

This series concerns the molecule itself. Description: SEC + SEC-MALS. On the technique in general: In gel filtration, larger molecules generally elute earlier.

B1: TtcA protein from Escherichia coli, N-terminal hexahistidine-tagged (6his-TtcA) (enzyme, E. coli, UniProt P76055 1-311, looked up)
chain: MQENQQITKKEQYNLNKLQKRLRRNVGEAIADFNMIEEGDRIMVCLSGGKDSYTMLEILRNLQQSAPINFSLVAVNLDQKQPGFPEHVLPEYLEKLGVEYKIVEENTYGIVKEKIPEGKTTCSLCSRLRRGILYRTATELGATKIALGHHRDDILQTLFLNMFYGGKMKGMPPKLMSDDGKHIVIRPLAYCREKDIQRFADAKAFPIIPCNLCGSQPNLQRQVIADMLRDWDKRYPGRIETMFSAMQNVVPSHLCDTNLFDFKGITHGSEVVNGGDLAFDREEIPLQPACWQPEEDENQLDELRLNVVEVK
B1: the stoichiometry N – broadly, a count of units in the complex or per binding partner – was 2.
